Assay results from patent publication US9226969B2, “Salt form of a multi-arm polymer-drug conjugate” (priority 2009, dated 2016).
Read-outs that look alike come from different tables or passages of the source.

Legend:
[1] = 40° C. and 75% relative humidity, over 3 months
Description: Compositions containing varying amounts of protonated irinotecan, as well as differing in the amount of TFA versus HCl salt were examined.
Samples were taken and analyzed on a periodic basis over the course of the studies.
FIG. 2 and FIG. 3 show another set of data obtained from the sample containing >99% HCl salt (<1% free base, squares) and a sample consisting of 86% total salts (14% free base, diamonds) that were stored at 40° C. and 75% relative humidity. […] The increase in smaller PEG species is indicative of decomposition of the PEG backbone to provide multiple PEG species.

[2] = Aqueous hydrolysis at pH 10; conditions: pH 10, 20° C., within 24 hours
Description: (§1) Experiments were performed to determine the fate of the irinotecan-containing PEG species in 4-arm-PEG-Gly-Irino-20K mixed TFA.chloride salt under transesterification (K2CO3 in CH3OH, 20° C.) and aqueous hydrolysis (pH 10, 20° C.) conditions.

[3] = Transesterification of irinotecan-containing PEG species; conditions: K2CO3 in CH3OH, 20° C., after 45 minutes
Description: as §1

Substance	increase in free irinotecan (stability with respect to hydrolysis) [1]	increase in smaller PEG species (PEG backbone decomposition) ([1]; listed as HCl salt)	increase in smaller PEG species (PEG backbone decomposition) ([1]; listed as hydrochloride salt)	free irinotecan (after 4 weeks at 40° C.)	total product related species (after 4 weeks at 40° C.)	free irinotecan (initial value, before storage)	total product related species (initial value, before storage)	aqueous hydrolysis reaction completion [2]	transesterification reaction completion [3]
Pentaerythritolyl-4-Arm-(PEG-1-Methylene-2Oxo-Vinylamino Acetate Linked-Irinotecan)-20K [listing 1 of 2 here]	greater hydrolytic stability than either the free base or mixed TFA.hydrochloride salt	more prone to PEG backbone decomposition than the mixed salt sample containing 14% free base	greater degree of backbone degradation	1.25%	97.0%	0.4%	98.7%		
Pentaerythritolyl-4-Arm-(PEG-1-Methylene-2Oxo-Vinylamino Acetate Linked-Irinotecan)-20K [listing 2 of 2 here]								> 99%	> 99%
